Laboratory results from patent US20260226503A1 (NORTH CAROLINA STATE UNIVERSITY, published 2026).
Where no end group is shown, it is not given here. Toyopearl AF‑Amino‑650M resin = chromatographic resin to which the peptide C-terminus is conjugated

Experiments:
[1] = molecular target: T1, AAV2 capsid (adeno-associated virus serotype 2, UniProt P03135 1-735; P03135 1-598; P03135 1-533); assay: bind-and-elute chromatography, pure AAV2, non-competitive mode, pH 7.0; AAV titer by ELISA
T1 construct: Whole assembled capsid, VP1:VP2:VP3 about 1:1:10; AF594-labelled in the library screen; GFP transgene in the lysate runs; a spherical cap of collated PDB structures in the docking; also called adeno-associated virus serotype 2

[2] = molecular target: T1, AAV2 capsid; assay: bind-and-elute chromatography, pure AAV2; bound at pH 7.0, eluted with 1 M MgCl2 pH 6.0; ELISA
[3] = molecular target: T1, AAV2 capsid; assay: dynamic binding capacity at 10% breakthrough; AAV2 in HEK293 lysate, 3.2e11 vp/mL, PBS pH 7.4, residence time 3 min
[4] = molecular target: AAV9 capsid (adeno-associated virus serotype 9); assay: bind-and-elute chromatography, pure AAV9; bound at pH 7.0, eluted with 1 M MgCl2 pH 6.0; ELISA

B1: KFNHWFG-Toyopearl resin (peptide)
peptide: KFNHWFG-{Toyopearl AF‑Amino‑650M resin}
notes: Peptide immobilised on chromatographic resin; also called W1; KFNHWF-Toyopearl
B1 was tested, and the “loss (AAV titer in flow-through and wash vs. load)” value [1] was under 1.7%, the “yield (AAV titer in elution fraction vs. load)” value [2] was 45% and the “DBC10% (vp AAV per mL of resin)” value [3] was 1.33e+13 vp AAV per mL of resin.

B2: IWWHIAKFG-Toyopearl resin (peptide)
peptide: IWWHIAKFG-{Toyopearl AF‑Amino‑650M resin}
notes: Peptide immobilised on chromatographic resin; also called W3
In the case of B2, the “loss (AAV titer in flow-through and wash vs. load)” value [1] is reported as under 1.7%, the “yield (AAV titer in elution fraction vs. load)” value [2] is reported as 54.9% and the “DBC10% (vp AAV per mL of resin)” value [3] is reported as 9.53e+12 vp AAV per mL of resin. The “yield (AAV titer in elution fraction vs. load)” value [4] was 61.7%.

B3: FWNWHHFKG-Toyopearl resin (peptide)
peptide: FWNWHHFKG-{Toyopearl AF‑Amino‑650M resin}
notes: Peptide immobilised on chromatographic resin; also called W4
In the case of B3, the “loss (AAV titer in flow-through and wash vs. load)” value [1] is reported as under 1.7%, the “DBC10% (vp AAV per mL of resin)” value [3] is reported as 8.75e+12 vp AAV per mL of resin and the “yield (AAV titer in elution fraction vs. load)” value [4] is reported as 43.9%.

B4: IKIFFFFSG-Toyopearl resin (peptide)
peptide: IKIFFFFSG-{Toyopearl AF‑Amino‑650M resin}
notes: Peptide immobilised on chromatographic resin; also called W7
For B4, the “loss (AAV titer in flow-through and wash vs. load)” value [1] was under 1.7% and the “DBC10% (vp AAV per mL of resin)” value [3] was 1.02e+13 vp AAV per mL of resin.

B5: FFNFFKG-Toyopearl resin (peptide)
peptide: FFNFFKG-{Toyopearl AF‑Amino‑650M resin}
notes: Peptide immobilised on chromatographic resin; also called W10; FFNFFK-Toyopearl
For B5, the “loss (AAV titer in flow-through and wash vs. load)” value [1] was under 1.7%, the “DBC10% (vp AAV per mL of resin)” value [3] was 1.4e+13 vp AAV per mL of resin and the “yield (AAV titer in elution fraction vs. load)” value [4] was 72.4%.

B6: WKAHNKG-Toyopearl resin (peptide)
peptide: WKAHNKG-{Toyopearl AF‑Amino‑650M resin}
notes: Peptide immobilised on chromatographic resin; also called W2
In the case of B6, the “loss (AAV titer in flow-through and wash vs. load)” value [1] is reported as under 1.7% and the “yield (AAV titer in elution fraction vs. load)” value [2] is reported as 79.8%.

B7: FWWAAFFKG-Toyopearl resin (peptide)
peptide: FWWAAFFKG-{Toyopearl AF‑Amino‑650M resin}
notes: Peptide immobilised on chromatographic resin; also called W5
B7 was tested, and the “loss (AAV titer in flow-through and wash vs. load)” value [1] was under 1.7%, the “yield (AAV titer in elution fraction vs. load)” value [2] was 44.8% and the “yield (AAV titer in elution fraction vs. load)” value [4] was 53.7%.

B8: IAFKKISIG-Toyopearl resin (peptide)
peptide: IAFKKISIG-{Toyopearl AF‑Amino‑650M resin}
notes: Peptide immobilised on chromatographic resin; also called W6
For B8, the “loss (AAV titer in flow-through and wash vs. load)” value [1] was under 1.7%.

B9: KWWIWAG-Toyopearl resin (peptide)
peptide: KWWIWAG-{Toyopearl AF‑Amino‑650M resin}
notes: Peptide immobilised on chromatographic resin; also called W8
In the case of B9, the “loss (AAV titer in flow-through and wash vs. load)” value [1] is reported as under 1.7% and the “yield (AAV titer in elution fraction vs. load)” value [4] is reported as 57.2%.

B10: WWIKISG-Toyopearl resin (peptide)
peptide: WWIKISG-{Toyopearl AF‑Amino‑650M resin}
notes: Peptide immobilised on chromatographic resin; also called W9
For B10, the “loss (AAV titer in flow-through and wash vs. load)” value [1] was under 1.7%.

B11: FNHFFIG-Toyopearl resin (peptide)
peptide: FNHFFIG-{Toyopearl AF‑Amino‑650M resin}
notes: Peptide immobilised on chromatographic resin; also called W11
For B11, the “loss (AAV titer in flow-through and wash vs. load)” value [1] was under 1.7%.
